Test results taken from patent US20250304717A1, “CAMPTOTHECIN DERIVATIVE AND LIGAND-DRUG CONJUGATE” (HAINAN SIMCERE ZAIMING PHARMACEUTICAL CO., LTD., priority 2022, published 2025).
Read-outs that look alike come from different tables or passages of the source.

Columns and labels:
[1] = target: human ROR1 on stably transfected cell strain MCF7-hROR1 clone 2G2 (human) (UniProt Q01973); test: flow cytometry (FACS) on MCF7-hROR1 clone 2G2 cells, identification of the stably transfected clone
SKBR3 tumor cell = test: Binding of anti-HER2 ADC and antibody with SKBR3 tumor cell by FACS; parameters: species or system human
Method: SKBR3 cells (from ATCC) were collected, counted, and plated in a 96-well plate (Corning, 3795) at 2×10^5 cells/well. The serially diluted sample to be detected was added and incubated at 4° C. for 1 h. After the mixture was washed twice with ice PBS, Alexa Fluor-647 goat anti-human Fc secondary antibody (JacksonImmuno, 109-605-098) was added, and the mixture was incubated at 4° C. for 1 h. After the mixture was washed twice with ice PBS, the cells were resuspended, and the mean fluorescence intensity (MFI) was analyzed using a flow cytometer (BD FACSCanto™ II). Data were analyzed by four-parameter curve fitting using Graphpad Prism software to give EC50 values.

MCF7-hROR1 clone 2G2 = test: FACS identification of MCF7 cell line stably transfected with human ROR1 protein; format: binding
Method: A nucleotide sequence encoding the amino acid sequence of human ROR1 (SEQ ID NO: 105) was cloned into a pLVX lentiviral vector, and viral particles were prepared in HEK293T cells. After lentivirus infection, the MCF7 cell line (purchased from Chinese Academy of Science), was selectively cultured in a DMEM (Gibco, Cat. No. 11995073) medium containing 5 μg/mL puromycin (Gibco, Cat. No. A1113803) and 10% (w/w) fetal bovine serum (ExCell Bio, Cat. No. FND500) for 1 week. Positive cell populations with different expression levels were sorted on a flow cytometer FACS Aria III (purchased from BD Biosciences) using ROR1-Ab-1 and goat anti-mouse IgG (H+L) antibody (Jackson, Cat. No. 115605006) and cultured in 96-well plates at 37° C. with 5% (v/v) CO2. After about 2 weeks, a portion of the cells were selected for expansion, and positive cell populations with better growth, higher fluorescence intensity, and better homogeneity were selected, further expanded and cryopreserved in liquid nitrogen.

[2] = 37° C., 100 μg/mL
Method: ADC molecules (final concentration: 100 μg/mL) were separately incubated with human plasma (Oribiotech, PB021-C) and monkey plasma (Shinuoda Bio, SND-X0107) in an incubator at 37° C. The day of incubation was defined as day 0. Samples were taken on days 7, 14 and 28 and tested for the free small molecule.
300 μL of an internal standard working solution (acetonitrile preparation) was added to 20 μL of the sample, and the mixture was vortexed for mixing for 5 min and centrifuged for 5 min (14000 rpm). 4 μL of the supernatant was analyzed by LC-MS/MS (API 6500+).

[3] = system: OVCAR3 subcutaneous tumor model; test: Efficacy in OVCAR3 subcutaneous tumor model-1; format: in vivo, Balb/c nude mice; settings: 3 mg/kg, single intravenous injection
From the text: Experimental reagent: Human ovarian cancer OVCAR3 cells were purchased from ATCC, RPMI-1640 medium was purchased from Gibco (Cat. No. A104910), fetal bovine serum was purchased from Excell (Cat. No. FND500), penicillin-streptomycin was purchased from Gibco (Cat. No. 15140122), bovine insulin was purchased from Yeasen (Cat. No. 40107ES60), 0.25% trypsin-EDTA was purchased from Gibco (Cat. No. 25200-072), D-PBS (phosphate-buffered saline without calcium and magnesium ions) was purchased from Hyclone (Cat. No. SH30256.01), and Matrigel was purchased from Corning (Cat. No. 356237).
Animal information: Balb/c nude mice, female, 5-6 weeks, weight about 14-20 g, purchased from Beijing Vital River Biotechnology Co., Ltd. The mice were bred in SPF-rated environment with air exhaust for each cage individually. All animals had free access to standard certified commercial laboratory diets and water.
Cell culture: The human ovarian cancer OVCAR3 cell strain was cultured in vitro under the conditions of RPMI-1640 added with 20% fetal bovine serum, 1% penicillin-streptomycin, and […] bovine insulin, and an incubator at 37° C. with 5% CO2. The cells were digested with a 0.25% trypsin-EDTA digestive solution once a week for passaging as per conventional practice. When the cell saturation was 80%-90% and a required amount was achieved, the cells were collected and counted.
Cell inoculation: 0.1 mL of OVCAR3 cell suspension (containing 1×10^7 cells, RPMI-1640: Matrigel, volume ratio 1:1) was inoculated subcutaneously into the axilla of each mouse. On day 26 after inoculation of the cells, the mice were randomly grouped and administrated based on tumor volume.
The day when random grouping was performed was day 0.
Tumor diameters were measured twice weekly using a vernier caliper. The tumor volume was calculated using the following formula: V=0.5a×b^2, where a and b represent the long diameter and short diameter of the tumor, respectively. Mouse body weight was measured twice weekly.

Molecule: IgG subtype control (antibody)
- Mean fluorescence intensity of cells [1]: 54.7

Molecule: Pertuzumab: anti-human HER2 monoclonal antibody; VH SEQ ID NO: 3, VL SEQ ID NO: 4 [reference compound]
- EC50 (SKBR3 tumor cell): 3.73 nM

B1: ROR1-Ab-1: anti-human ROR1 monoclonal antibody, variable region sequence from patent WO2020198531A2; SEQ ID NO: 80/81 (antibody, V domains shown)
VH: QVQLQESGPGLVKPSQTLSLTCTVSGYAFTAYNIHWVRQAPGQGLEWMGSFDPYDGGSSYNQKFKDRLTISKDTSKNQVVLTMTNMDPVDTATYYCARGWYYFDYWGHGTLVTVSS
VL: DIVMTQTPLSLPVTPGEPASISCRASKSISKYLAWYQQKPGQAPRLLIYSGSTLQSGIPPRFSGSGYGTDFTLTINNIESEDAAYYFCQQHDESPYTFGEGTKVEIK
- Mean fluorescence intensity of cells (MCF7-hROR1 clone 2G2): 26497

B2: ADC-DS: comparator CDH6 antibody-drug conjugate of Table 9, DAR 7.5 (conjugate, chains of the INN, looked up)
VH: EVQLVQSGAEVKKPGASVKVSCKASGYTFTRNFMHWVRQAPGQGLEWMGWIYPGDGETEYAQKFQGRVTITADTSTSTAYMELSSLRSEDTAVYYCARGVYGGFAGGYFDFWGQGTLVTVSS
VL: DIQMTQSPSSLSASVGDRVTITCKASQNIYKNLAWYQQKPGKAPKLLIYDANTLQTGVPSRFSGSGSGSDFTLTISSLQPEDFATYFCQQYYSGWAFGQGTKVEIK
modifications: deruxtecan payload, DAR 7.5
- Free small molecule % ([2]; Human plasma, incubation 0 day): 0.59%
- Free small molecule % ([2]; Human plasma, incubation 7 days): 0.72%
- Free small molecule % ([2]; Human plasma, incubation 14 days): 1.21%
- Free small molecule % ([2]; Human plasma, incubation 28 days): 1.90%
- Free small molecule % ([2]; Monkey plasma, incubation 0 day): 0.64%
- Free small molecule % ([2]; Monkey plasma, incubation 7 days): 2.28%
- Free small molecule % ([2]; Monkey plasma, incubation 14 days): 4.03%
- Free small molecule % ([2]; Monkey plasma, incubation 28 days): 9.66%
- Mean tumor volume (mm^3) Day 0 ([3]; Table 23): 154.4 mm^3
- Mean tumor volume (mm^3) Day 4 ([3]; Table 23, Day 4): 211.3 mm^3
- Mean tumor volume (mm^3) Day 7 ([3]; Table 23, Day 7): 194.1 mm^3
- Mean tumor volume (mm^3) Day 11 ([3]; Table 23, Day 11): 159.5 mm^3
- Mean tumor volume (mm^3) Day 14 ([3]; Table 23, Day 14): 131.5 mm^3
- Mean tumor volume (mm^3) Day 18 ([3]; Table 23, Day 18): 95.5 mm^3
- Mean tumor volume (mm^3) Day 22 ([3]; Table 23): 73.6 mm^3
- Mean tumor volume (mm^3) Day 25 ([3]; Table 23, Day 25): 66.0 mm^3
- Mean tumor volume (mm^3) Day 28 ([3]; Table 23, Day 28): 77.8 mm^3
- TGI (%) Day 28 ([3]; Table 23, Day 28): 110.6%
- Mean tumor volume (mm^3) Day 0 ([3]; Table 24): 145.0 mm^3
- Mean tumor volume (mm^3) Day 5 ([3]; Table 24, Day 5): 165.9 mm^3
- Mean tumor volume (mm^3) Day 8 ([3]; Table 24, Day 8): 153.4 mm^3
- Mean tumor volume (mm^3) Day 12 ([3]; Table 24, Day 12): 91.4 mm^3
- Mean tumor volume (mm^3) Day 16 ([3]; Table 24, Day 16): 56.2 mm^3
- Mean tumor volume (mm^3) Day 19 ([3]; Table 24, Day 19): 41.2 mm^3
- Mean tumor volume (mm^3) Day 22 ([3]; Table 24): 28.9 mm^3
- Mean tumor volume (mm^3) Day 27 ([3]; Table 24, Day 27): 23.4 mm^3
- TG (%) Day 27 ([3]; Table 24, Day 27): 134.2%
